Consider 13 variants from IntAct's records for PubMed 12615979.

The labels stand for the following.
B1: Serine/threonine-protein kinase plo1 (Schizosaccharomyces pombe (strain ATCC 38366 / 972)), P50528 (parent)
chain: MASVAIKEPKTAITPKKKSKASRLCFTPPTNLHNNKKNIFYTRYDCIGEGGFARCFRVKDNYGNIYAAKVIAKRSLQNDKTKLKLFGEIKVHQSMSHPNIVGFIDCFEDSTNIYLILELCEHKSLMELLRKRKQLTEPEVRYLMMQILGALKYMHKKRVIHRDLKLGNIMLDESNNVKIGDFGLAALLMDDEERKMTICGTPNYIAPEILFNSKEGHSFEVDLWSAGVVMYALLIGKPPFQDKEVKTIYRKIKANSYSFPSNVDISAEAKDLISSLLTHDPSIRPSIDDIVDHEFFHTGYMASTLPDEILHSMPIWPSSQSKSSFQRNLDFVASASGVGFGNSAGVEKNKPYALRTDEVDNDRILPSVLSPRDRVNPVMKIGPETKPVPSKLSTALHAARKSTDGSLGSRVKVLREESQSFVPTKSAVTEQVEPIQLIRSLSANTVSRLSKVGNMKSDIWISVKKTALKIGMALEAHTHALTSEDADSEPVLFITKWVDYSNKYGLGYQLSDESVGVHFNDDTSLLFSADEEVVEYALHPKDTEIKPYIYPASKVPESIRSKLQLLKHFKSYMGQNLSKAVQDESFEKPKNSTSNTMLFMQHYLRTRQAIMFRLSNGIFQFNFLDHRKVVISSTARKIIVLDKERERVELPLQEASAFSEDLRSRLKYIRETLESWASKMEVS
partner: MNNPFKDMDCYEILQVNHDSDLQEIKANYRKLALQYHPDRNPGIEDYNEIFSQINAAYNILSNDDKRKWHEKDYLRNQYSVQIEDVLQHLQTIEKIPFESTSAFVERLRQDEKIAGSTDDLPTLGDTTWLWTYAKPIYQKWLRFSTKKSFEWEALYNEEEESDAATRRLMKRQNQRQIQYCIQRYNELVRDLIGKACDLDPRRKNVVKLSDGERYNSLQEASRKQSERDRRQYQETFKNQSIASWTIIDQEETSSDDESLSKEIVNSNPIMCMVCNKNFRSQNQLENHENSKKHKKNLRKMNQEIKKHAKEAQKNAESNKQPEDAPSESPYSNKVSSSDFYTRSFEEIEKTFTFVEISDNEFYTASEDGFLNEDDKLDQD
B2: Serine/threonine-protein kinase plo1 (Schizosaccharomyces pombe (strain ATCC 38366 / 972)), P50528 (parent)
chain: B1 chain
partner: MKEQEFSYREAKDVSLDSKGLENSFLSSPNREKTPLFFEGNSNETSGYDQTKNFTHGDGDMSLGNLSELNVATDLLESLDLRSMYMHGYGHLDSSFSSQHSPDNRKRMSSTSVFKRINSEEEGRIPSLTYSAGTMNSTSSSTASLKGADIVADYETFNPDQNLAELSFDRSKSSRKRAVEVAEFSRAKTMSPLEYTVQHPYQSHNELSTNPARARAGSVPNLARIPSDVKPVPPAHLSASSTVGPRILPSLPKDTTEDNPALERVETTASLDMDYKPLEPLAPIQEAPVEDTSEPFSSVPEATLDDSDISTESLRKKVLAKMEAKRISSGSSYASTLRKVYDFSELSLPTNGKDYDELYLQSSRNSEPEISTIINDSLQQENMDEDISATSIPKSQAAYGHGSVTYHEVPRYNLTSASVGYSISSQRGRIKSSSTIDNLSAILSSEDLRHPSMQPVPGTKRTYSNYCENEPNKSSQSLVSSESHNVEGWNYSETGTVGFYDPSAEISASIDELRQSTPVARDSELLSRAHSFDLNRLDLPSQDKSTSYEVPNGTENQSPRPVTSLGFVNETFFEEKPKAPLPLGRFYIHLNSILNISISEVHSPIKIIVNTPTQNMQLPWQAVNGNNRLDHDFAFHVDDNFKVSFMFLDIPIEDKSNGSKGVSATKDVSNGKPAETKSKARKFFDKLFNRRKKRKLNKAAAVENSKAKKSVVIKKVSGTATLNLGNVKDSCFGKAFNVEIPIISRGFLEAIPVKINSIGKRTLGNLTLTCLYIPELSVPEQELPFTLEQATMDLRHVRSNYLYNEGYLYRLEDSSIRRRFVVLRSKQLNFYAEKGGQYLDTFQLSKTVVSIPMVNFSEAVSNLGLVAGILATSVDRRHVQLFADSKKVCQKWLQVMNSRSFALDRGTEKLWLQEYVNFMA
B3: Serine/threonine-protein kinase plo1 (Schizosaccharomyces pombe (strain ATCC 38366 / 972)), P50528 (parent)
chain: B1 chain
partner: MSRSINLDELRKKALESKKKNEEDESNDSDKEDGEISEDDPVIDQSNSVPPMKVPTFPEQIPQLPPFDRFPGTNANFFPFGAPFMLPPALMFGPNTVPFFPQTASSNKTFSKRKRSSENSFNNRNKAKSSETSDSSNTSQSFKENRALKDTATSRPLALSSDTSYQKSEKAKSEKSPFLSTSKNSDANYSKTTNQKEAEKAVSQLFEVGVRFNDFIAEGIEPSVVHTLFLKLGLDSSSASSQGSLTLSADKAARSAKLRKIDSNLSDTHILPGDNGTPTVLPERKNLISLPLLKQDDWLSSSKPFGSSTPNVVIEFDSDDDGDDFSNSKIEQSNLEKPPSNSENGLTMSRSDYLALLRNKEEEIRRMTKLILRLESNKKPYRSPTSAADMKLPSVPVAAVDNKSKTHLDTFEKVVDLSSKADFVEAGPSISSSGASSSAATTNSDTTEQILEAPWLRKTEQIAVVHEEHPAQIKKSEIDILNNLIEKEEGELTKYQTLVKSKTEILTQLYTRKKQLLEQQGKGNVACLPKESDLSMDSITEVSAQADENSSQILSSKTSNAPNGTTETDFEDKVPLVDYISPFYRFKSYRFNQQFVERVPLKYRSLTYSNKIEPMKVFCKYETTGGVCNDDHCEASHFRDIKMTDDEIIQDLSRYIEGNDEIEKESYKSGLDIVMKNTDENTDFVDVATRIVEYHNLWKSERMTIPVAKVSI
B4: Serine/threonine-protein kinase plo1 (Schizosaccharomyces pombe (strain ATCC 38366 / 972)), P50528 (parent)
chain: B1 chain
partner: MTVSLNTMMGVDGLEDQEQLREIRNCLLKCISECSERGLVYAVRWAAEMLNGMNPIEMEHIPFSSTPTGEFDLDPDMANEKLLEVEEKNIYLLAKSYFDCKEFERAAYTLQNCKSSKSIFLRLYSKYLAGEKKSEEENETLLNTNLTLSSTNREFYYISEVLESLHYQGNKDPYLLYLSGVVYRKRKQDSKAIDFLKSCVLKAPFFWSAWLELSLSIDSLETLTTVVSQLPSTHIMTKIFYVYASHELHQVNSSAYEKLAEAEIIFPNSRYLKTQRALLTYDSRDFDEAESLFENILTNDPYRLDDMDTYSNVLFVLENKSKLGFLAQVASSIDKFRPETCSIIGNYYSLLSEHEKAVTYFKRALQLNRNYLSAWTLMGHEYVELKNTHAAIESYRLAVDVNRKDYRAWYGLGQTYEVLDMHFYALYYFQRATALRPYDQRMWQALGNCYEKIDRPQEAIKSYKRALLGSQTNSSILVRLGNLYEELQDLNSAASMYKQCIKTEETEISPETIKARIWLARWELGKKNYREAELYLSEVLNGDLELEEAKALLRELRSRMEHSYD

Variants of B1 are the subject of one experiment. Conditions: with epr1_schpo epr1, O14213.
Take V498A: the “effect of a mutation on the interaction” value was “decreasing interaction”.

For the variant S256P, the “effect of a mutation on the interaction” value is “disrupting interaction”. On to I252T, for which the “effect of a mutation on the interaction” value was “disrupting interaction”. Still for that read-out and setting: in the case of V533A it was “decreasing interaction”. For K251E, the “effect of a mutation on the interaction” value is recorded as “disrupting interaction”. Regarding F493L, the “effect of a mutation on the interaction” value is “disrupting interaction”.

In a further experiment the parent is B2. As to conditions: with bud4_schpo mid1, P78953.
As to V533A, the “effect of a mutation on the interaction” value is “decreasing interaction”. For V498A, the “effect of a mutation on the interaction” value was “decreasing interaction”.

In a further experiment the parent is B3. As to conditions: with red1_schpo red1, Q9UTR8.
Consider V498A, for which the “effect of a mutation on the interaction” value was “decreasing interaction”.

The variants in a further experiment derive from B4. Conditions: with apc8_schpo cut23, O94556.
Consider R605P, for which the “effect of a mutation on the interaction” value is reported as “decreasing interaction”.

For the variant F493L, the “effect of a mutation on the interaction” value is “decreasing interaction”.

Consider L565F, for which the “effect of a mutation on the interaction” value is “decreasing interaction”. Regarding V533A, the “effect of a mutation on the interaction” value is reported as “decreasing interaction”.
